According to the supplement of paper PMC10567573:

B1: TRIM35 (parent)
chain: PTCPVCKDRASPADLRTNHTLNNL

Variants of: B1
Assay: protein stability index of a GFP-peptide fusion (GPS, HEK-293T) (PSI 1-6); higher = more stable
Details: c terminus: a fixed tail appended
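Note: lentivirally expressed fusions sorted by FACS into six bins by GFP to DsRed ratio, PSI derived from sequencing read proportions per bin multiplied by bin number.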

Point of comparison: A13S, protein stability index 2.87. Against it:
- T20E — higher, 3.92
- T20K — lower, 2.81
- T20V — higher, 3.19
- T20Q — higher, 3.06
- T20L — lower, 2.77
- T20M — lower, 2.67
- T20H — higher, 3.03
- T20N — higher, 3
- T20I — lower, 2.76
- T20P — higher, 3.23
- T20D — higher, 3.76
- T20S — lower, 2.7
- T20C — higher, 3
- T20F — lower, 2.59
- T20R — higher, 2.93
- T20Y — lower, 2.74
- T20W — lower, 2.09
- T20G — lower, 2.76
- T20A — higher, 3.11
- N23A — lower, 2.73
- L15E — higher, 3.86
- L15W — lower, 2.13
- L15G — higher, 3.87
- L15H — higher, 3.14
- L15D — higher, 3.73
- L15V — higher, 3.67
- L15Y — lower, 2.83
- L15R — higher, 3.33
- L15K — higher, 3.21
- L15M — higher, 2.9
- L15F — lower, 2.66
- L15T — higher, 3.57
- L15A — higher, 3.35
- L15Q — higher, 3.78
- L15N — higher, 3.96
- L15S — higher, 3.57
- L15P — higher, 3.34
- L15I — higher, 3
- L15C — higher, 4.23
- N18I — lower, 2.31
- N18W — lower, 2.16
- N18V — lower, 2.62
- N18G — higher, 3.03
- N18D — higher, 3.4
- N18M — lower, 2.64
- N18A — lower, 2.67
- N18C — higher, 3.6
- N18Y — lower, 2.76
- N18K — lower, 2.48
- N18S — lower, 2.81
- N18R — lower, 2.71
- N18T — lower, 2.86
- N18L — lower, 2.6
- N18P — lower, 2.83
- N18F — lower, 2.53
- N18Q — higher, 3.3
- N18H — higher, 2.94
- N18E — higher, 3.75
- K7F — higher, 2.94
- K7D — higher, 3.65
- K7E — higher, 3.88
- K7P — higher, 4.04
- K7G — lower, 2.72
- K7I — higher, 3.18
- K7A — higher, 3.19
- K7T — lower, 2.72
- K7M — the same, 2.87
- K7R — lower, 2.72
- K7L — higher, 2.91
- K7H — higher, 3.13
- K7C — lower, 2.68
- K7W — lower, 2.84
- K7Y — lower, 2.72
- K7Q — higher, 3.37
- K7V — higher, 3.45
- K7N — higher, 3.13
- K7S — lower, 2.68
- A10D — higher, 3.34
- A10P — higher, 3.17
- A10L — lower, 1.96
- A10Y — lower, 2.56
- A10H — higher, 3.23
- A10I — higher, 3.05
- A10F — higher, 2.96
- A10T — higher, 2.96
- A10M — lower, 2.72
- A10Q — higher, 3.01
- A10E — higher, 3.33
- A10R — higher, 3.03
- A10W — lower, 2.22
- A10S — lower, 2.86
- A10C — lower, 2.03
- A10G — higher, 2.88
- A10K — higher, 3.05
- A10V — lower, 2.45
- A10N — lower, 2.78
- N22D — higher, 4.1
- N22M — lower, 2.67
- N22F — lower, 2.13
- N22I — lower, 2.65
- N22V — lower, 2.21
- N22E — higher, 3.73
- N22C — higher, 4.13
- N22W — lower, 2.02
- N22K — the same, 2.87
- N22T — lower, 2.76
- N22L — lower, 2.56
- N22S — higher, 2.99
- N22Q — higher, 3.63
- N22Y — lower, 2.38
- N22R — lower, 1.98
- N22A — higher, 3.06
- N22G — higher, 3.39
- N22H — higher, 2.9
- N22P — lower, 2.44
- R16W — lower, 2.01
- R16I — lower, 2.33
- R16T — higher, 2.95
- R16Q — higher, 3.39
- R16P — higher, 3.11
- R16F — lower, 2.42
- R16V — higher, 3.07
- R16C — higher, 3.89
- R16H — higher, 3.17
- R16E — higher, 4.09
- R16A — higher, 3.34
- R16L — higher, 3.04
- R16K — lower, 2.7
- R16D — higher, 3.91
- R16Y — lower, 2.42
- R16N — higher, 3.32
- R16S — higher, 3.54
- R16G — lower, 2.63
- R16M — lower, 2.72
- A13I — lower, 2.53
- A13G — higher, 3.23
- A13T — lower, 2.75
- A13M — lower, 2.58
- A13R — higher, 3.2
- A13N — higher, 3.27
- A13K — higher, 3.65
- A13D — higher, 3.13
- A13P — higher, 3.29
- A13F — lower, 2.26
- A13Q — lower, 2.55
- A13V — lower, 2.62
- A13H — higher, 3.1
- A13Y — lower, 2.59
- A13E — higher, 3.86
- A13W — lower, 1.81
- A13L — lower, 2.31
- A13C — higher, 3.69
- H19Y — higher, 3.13
- H19L — higher, 3.02
- H19C — higher, 2.95
- H19P — higher, 3.19
- H19K — higher, 3.21
- H19N — higher, 3.09
- H19M — higher, 3.09
- H19S — higher, 3.09
- H19D — higher, 3.61
- H19F — lower, 2.4
- H19Q — higher, 3.28
- H19G — higher, 3.33
- H19R — higher, 3.14
- H19E — higher, 3.79
- H19V — higher, 3.04
- H19A — lower, 2.86
- H19W — lower, 2.86
- H19I — lower, 2.5
- H19T — lower, 2.81
- D14P — higher, 2.98
- D14Q — higher, 3.18
- D14K — lower, 2.72
- D14T — lower, 2.77
- D14W — lower, 2.6
- D14G — lower, 2.48
- D14I — lower, 2.45
- D14H — higher, 2.97
- D14V — lower, 2.54
- D14L — lower, 2.2
- D14R — higher, 2.94
- D14N — lower, 2.5
- D14S — higher, 2.98
- D14A — lower, 2.5
- D14E — higher, 3.12
- D14M — lower, 2.2
- D14Y — lower, 2.24
- D14F — lower, 2.21
- D14C — higher, 3.9
- L21I — lower, 2.61
- L21Q — higher, 3.52
- L21F — lower, 2.62
- L21P — higher, 3.39
- L21K — higher, 3.13
- L21G — higher, 3.3
- L21W — lower, 2.18
- L21M — higher, 3.18
- L21Y — lower, 2.76
- L21A — higher, 3.22
- L21S — higher, 3.42
- L21C — higher, 4.64
- L21N — higher, 3.27
- L21R — lower, 2.55
- L21E — higher, 3.59
- L21D — higher, 3.99
- L21H — higher, 3.66
- L21V — higher, 2.96
- L21T — higher, 3.07
- V5W — lower, 2.78
- V5R — the same, 2.87
- V5S — higher, 3.43
- V5Y — lower, 1.91
- V5P — higher, 4.71
- V5N — higher, 3.3
- V5L — lower, 2.47
- V5Q — higher, 3.38
- V5M — lower, 2.76
- V5T — higher, 3.19
- T17D — higher, 3.36
- T17I — higher, 3.07
- T17Y — lower, 2.6
- T17C — higher, 4.21
- T17P — higher, 3.34
- T17N — higher, 3.09
- T17R — higher, 3.1
- T17G — higher, 3.18
- T17Q — higher, 3.28
- T17H — higher, 3.66
- T17S — higher, 3.13
- T17F — lower, 2.52
- T17W — lower, 2.35
- T17A — lower, 2.75
- T17V — lower, 2.6
- T17L — lower, 2.58
- T17E — higher, 3.29
- T17M — lower, 2.67
- T17K — higher, 3.02
- P12R — lower, 2.36
- P12L — lower, 2.1
- P12I — lower, 2.47
- P12N — higher, 2.89
- P12Y — lower, 2.69
- P12H — lower, 2.61
- P12D — higher, 3.5
- P12W — lower, 2.03
- P12Q — higher, 3.11
- P12A — lower, 2.46
- P12S — higher, 2.95
- P12V — lower, 2.85
- P12M — lower, 2.35
- P12E — higher, 3.38
- P12T — higher, 2.96
- P12F — lower, 2.52
- P12G — higher, 2.9
- P12K — lower, 2.83
- P12C — lower, 2.58
- D8I — lower, 2.65
- D8N — lower, 2.65
- D8A — lower, 1.94
- D8M — lower, 1.92
- D8H — lower, 2.61
- D8R — lower, 2.02
- D8C — lower, 2.09
- D8P — lower, 2.83
- D8L — lower, 2.36
- D8T — lower, 2.67
- D8S — lower, 2.45
- D8W — lower, 2.32
- D8G — higher, 3.11
- D8V — lower, 2.39
- D8K — lower, 2.31
- D8E — lower, 2.75
- D8Y — lower, 2.02
- D8F — lower, 1.71
- D8Q — higher, 3
- C6K — higher, 4.31
- C6G — higher, 4.12
- C6L — higher, 3.86
- C6N — higher, 4.2
- C6V — higher, 4.22
- C6I — higher, 3.59
- C6P — higher, 4.09
- C6T — higher, 4.44
- C6S — higher, 4.39
- C6W — higher, 3.21
- C6R — higher, 4.05
- C6H — higher, 4.11
- C6F — higher, 3.84
- C6D — higher, 4.74
- C6Q — higher, 4.28
- C6M — higher, 4.22
- C6A — higher, 4.55
- C6E — higher, 4.64
- C6Y — higher, 4.1
- R9K — higher, 3.16
- R9S — higher, 3.5
- R9H — higher, 3.66
- R9D — higher, 3.99
- R9G — higher, 3.66
- R9Q — higher, 3.55
- R9Y — higher, 3.08
- R9C — higher, 2.97
- R9V — higher, 2.9
- R9L — higher, 3.07
- R9E — higher, 3.62
- R9T — higher, 3.5
- R9F — higher, 3.11
- R9P — higher, 3.71
- R9N — higher, 3.12
- R9M — higher, 2.97
- R9I — higher, 2.96
- R9W — higher, 3.11
- R9A — higher, 2.98
- S11Y — higher, 3.11
- S11G — higher, 2.94
- S11K — higher, 3.32
- S11R — lower, 2.72
- S11N — lower, 2.86
- S11Q — higher, 3.07
- S11C — higher, 3.74
- S11E — higher, 3.51
- S11H — higher, 2.92
- S11P — higher, 3.19
- S11T — higher, 3.04
- S11M — higher, 3.1
- S11F — lower, 2.55
- S11A — higher, 3.3
- S11I — higher, 2.97
- S11W — lower, 2.51
- S11V — higher, 3.1
- S11D — higher, 3.44
- S11L — higher, 3.07
